Data taken from PMC4674563.

Target: Photosystem II core complex from solubilized grana (SG-PSII) (Nicotiana tabacum (endogenous in thylakoids) | Nicotiana tabacum) (UniProt P69556)
Assay: SEC + native gel or EMSA; Ni-NTA-purified PSII pools on Superose 6 in 40 mM MES-NaOH pH 6.5, 20 mM NaCl, 5 mM MgCl2, 1 mM CaCl2, 10 mM NaHCO3, 0.01% β-DDM; pools and fractions checked by BN-PAGE (3-12% gradient, 4°C); C2 also seen by negative-stain TEM

stoichiometry N: 2
Substance: Photosystem II core complex from solubilized grana (SG-PSII) (from UniProt P69556 1-344; P06411 1-508; P06413 15-473; P69686 1-353; P69384 1-83; P06415 1-73; P60139 1-38; Q40519 38-136)
